Source: patent US20220162259A1, “PEPTIDE COMPLEX AND PRODUCTION METHOD THEREFOR, AND USE OF SAID PEPTIDE COMPLEX” (KANEKA CORPORATION, priority 2019, published 2022)
Numbered stars: 1 amine (or outer) side, 2 acyl side, 3 side chain; on linkers, the order of the positions; unused ones are H or OH. Bridge positions count the residues as written; N and C are the ends. Square brackets hold non-standard residues; d marks the D form. Ends that are not written are not given here. Peptide text beside a SMILES is read from it. * marks the point of attachment. X1 = NC(N)=NCCNC(=O)CCOCC(COCCC(=O)NCCN=C(N)N)(COCCC(=O)NCCN=C(N)N)NC(=O)CON=C(C[*:1])C[*:2]; FITC = O=C1OC2(c3ccc(O)cc3Oc3cc(O)ccc32)c2ccc(NC(=S)*)cc21; Ahx = NCCCCCC(=O)O

Tested on: HeLa cells
Assay: Evaluation of cell-membrane permeability (flow cytometry of FITC-labelled peptide complexes)
Format: cell-based, Human
Settings: for Mode of fluorescence intensity, 0 hour of culture / Mode of fluorescence intensity, 1 hour of culture: 2 μM peptide complex, flow cytometer; for Mode of fluorescence intensity, 0 hour of culture: living (propidium iodide-negative) cells; for Mode of fluorescence intensity, 1 hour of culture: 37° C., 5% CO2, living (propidium iodide-negative) cells; for Level of cell-membrane permeation compared with Comparative Example 1: at 1 hour of culture, versus peptide complex of Comparative Example 1
Description: HeLa cells (Human cervix adenocarcinoma cells) were cultured for 1 hour in a cell culture containing 2 μM of the peptide complex synthesized in Example 1 or 2 or Comparative Example 1 under conditions of 5% (v/v) CO2 and 37° C. For culturing the HeLa cells, FluoroBrite D-MEM (obtained from ThermoFisher Co.) (supplemented with 10% (v/v) FCS (fetal calf serum) and 10% (v/v) GlutaMax (obtained from ThermoFisher Co.)) was used.
Next, the surfaces of the cells were washed with D-PBS (−) (supplemented with heparin (20 units/mL)), followed by recovery of the cells. The cells were suspended in D-PBS(−) (supplemented with 0.5% (v/v) BSA (bovine serum albumin), 200 mM EDTA (ethylenediaminetetraacetic acid), and 0.2% (v/v) propidium iodide (obtained from Sigma-Aldrich Co.)). A flow cytometer (BD FACS AriaIII) was used to measure fluorescence intensity. Upon flow cytometry analysis, the mode of fluorescence intensity was calculated for a population of living cells excluding dead cells that were propidium iodide-positive. As a control, dimethyl sulfoxide (DMSO) not containing the peptide complex was tested in the same manner.

Row | Molecule | Mode of fluorescence intensity, 0 hour of culture | Mode of fluorescence intensity, 1 hour of culture | Level of cell-membrane permeation compared with Comparative Example 1
1 | Example 2: FITC-labelled cyclic peptide CMLYIVPYFSVGC with cell-membrane-permeability-imparting group G9 (three dendritic units, nine guanidino groups) bound by oxime ligation (not fully specified (N-terminus, C-terminus, bridges); also: cyclic, mode not given here, FITC label, place not given here, G9 guanidino dendron bound by oxime ligation, place not given here) | 65.8 | 877 | higher levels of cell-membrane permeation
2 | CC[C@H](C)[C@@H]1NC(=O)[C@H](Cc2ccc(O)cc2)NC(=O)[C@H](CC(C)C)NC(=O)[C@H](CCSC)NC(=O)[C@@H](NC(=O)CCCCCNC(=S)Nc2ccc3c(c2)C(=O)OC32c3ccc(O)cc3Oc3cc(O)ccc32)CSCC(=NOCC(=O)NC(COCCC(=O)NCCN=C(N)N)(COCCC(=O)NCCN=C(N)N)COCCC(=O)NCCN=C(N)N)CSC[C@@H](C(N)=O)NC(=O)CNC(=O)[C@H](C(C)C)NC(=O)[C@H](CO)NC(=O)[C@H](Cc2ccccc2)NC(=O)[C@H](Cc2ccc(O)cc2)NC(=O)[C@@H]2CCCN2C(=O)[C@H](C(C)C)NC1=O [Comparative Example 1, reference compound] ({FITC-Ahx}-CMLYIVPYFSVGC-NH2; linker 1-13 via X1) | 66.6 | 412 | –
3 | Example 1: FITC-labelled cyclic peptide CMLYIVPYFSVGC with cell-membrane-permeability-imparting group G6 (two dendritic units, six guanidino groups) bound by oxime ligation ([Ahx]CMLYIVPYFSVGC-NH2; not fully specified (bridges); numbers in words are those of the source; also: cyclic, mode not given here, FITC label, place not given here, G6 guanidino dendron bound by oxime ligation, place not given here) | 60 | 730 | higher levels of cell-membrane permeation
